Measurements as given in patent publication US6713280 (THOMAS JEFFERSON UNIVERSITY, dated 2004).
No end group written: not given here. *: point of attachment. Decanoyl = CCCCCCCCCC(=O)*

B1: fluorescein-labeled peptide SEQ ID NO:30 (Flu-SEQ ID NO:30) (peptide)
peptide: GQVGRQLAIIGDDINR
modifications: also: fluorescein label, site of attachment not given here
notes: Synthetic peptide labeled with fluorescein; tracer of the fluorescence polarization assay; also called fluoresceinated BakBH3 peptide; Flu-SQ30

Legend:
GST-Bcl-2 protein = target: T1, GST-Bcl-2 protein (UniProt P10415 1-205, limits assumed); experiment: fluorescence polarization competition; 30 nM Flu-SEQ ID NO:30, 0.5 µM GST-Bcl-2, conjugate at 0.005-0.32 µM, 30 minutes at 37° C.
T1 construct: not shown: GST tag

CD4 = CD4 (UniProt P01730 26-396, limits assumed); experiment: fluorescence polarization, FIG. 2: E
Bax = Bax (UniProt Q07812 1-171, limits assumed); experiment: fluorescence polarization, FIG. 2: C
[1] = target: T2, SH3 domain of the Bcr-Abl oncoprotein (UniProt P00519 61-121); experiment: fluorescence polarization, FIG. 2: D
T2 construct: domain: SH3 domain; also called Bcr-Abl SH3
T2 sequence (P00519 61-121 limits assumed): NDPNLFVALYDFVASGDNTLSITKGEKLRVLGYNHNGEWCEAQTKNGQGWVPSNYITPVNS

Chain of Bax (Q07812 1-171 limits assumed): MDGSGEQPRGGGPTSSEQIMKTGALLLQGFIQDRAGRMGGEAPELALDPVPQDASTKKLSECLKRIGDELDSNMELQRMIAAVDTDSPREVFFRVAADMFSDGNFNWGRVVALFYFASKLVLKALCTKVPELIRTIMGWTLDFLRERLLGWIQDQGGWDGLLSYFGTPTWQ
T1 sequence (P10415 1-205 limits assumed): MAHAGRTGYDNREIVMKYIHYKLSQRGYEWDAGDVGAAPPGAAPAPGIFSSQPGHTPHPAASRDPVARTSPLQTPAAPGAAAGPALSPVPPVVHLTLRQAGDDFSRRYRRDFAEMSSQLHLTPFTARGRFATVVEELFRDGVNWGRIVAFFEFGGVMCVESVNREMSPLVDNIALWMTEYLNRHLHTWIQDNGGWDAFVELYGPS

| Binder | EC50 (GST-Bcl-2 protein) [nM] | binding result (CD4) | binding result (Bax) | binding result [1] |
| --- | --- | --- | --- | --- |
| Decanoyl-KNLWAAQRYGRELRRMSDEFEGSFKGL (also called decyl-K1285) [decyl-SEQ ID NO:56 (CH3(CH2)8COHN-KNLWAAQRYGRELRRMSDEFEGSFKGL)] | 130 |  |  |  |
| B1 |  | no binding | no binding | no binding |
